Tested on: full-length human Keratin 6

Kgp
enzymatic degradation products detected by mass spectrometry (on spot profiling): peptides consisting of the amino acid sequences shown by SEQ ID NOs: 4 and 5 (peptides 6 and 7) were newly identified as Kgp degradation products of human Keratin 6

— patent publication US20130086703
